Experimental data published in patent publication US20220002427A1 (ENGMAB SARL, published 2022).
“And” between values parts separate entries of the source, which are not always exact repeats. Equal values may be shown once.

T1: human BCMA on cells (human, UniProt Q02223 1-184)
T1 construct: whole, on cells; also called huBCMA on HEK cells; HEK-huBCMA cells
T1 sequence (looked up): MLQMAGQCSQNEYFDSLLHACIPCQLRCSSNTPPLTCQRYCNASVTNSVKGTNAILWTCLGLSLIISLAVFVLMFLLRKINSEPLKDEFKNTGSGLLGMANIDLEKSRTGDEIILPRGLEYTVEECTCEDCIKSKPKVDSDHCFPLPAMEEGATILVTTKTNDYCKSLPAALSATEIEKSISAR

T2: recombinant human BCMA Fc(kih) (human, UniProt Q02223 4-53, site-specifically biotinylated at the C-terminal avi-tag ; Biotin on the avi-tag at the C-terminus of the Fc knob chain (tag and Fc left out).)
T2 construct: Knobs-into-holes heterodimer carrying one BCMA ectodomain; also called huBCMA Fc(kih); huBCMA; not shown: human IgG1 hinge-Fc knob chain with C-terminal avi-tag, and the unfused Fc hole chain
T2 chain: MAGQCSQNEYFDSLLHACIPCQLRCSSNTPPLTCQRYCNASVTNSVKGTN


What was measured:
human BCMA on cells = target: T1, human BCMA on cells; test: flow cytometry on HEK-huBCMA cells, PE anti-human Fc detection
[1] = target: T3, recombinant cynomolgus BCMA Fc(kih) (cynomolgus, UniProt A0A2K5UD97 4-51); test: ratio of SPR KD values (KD cynomolgus BCMA / KD human BCMA), reference human BCMA Fc(kih)
Protocol: (§1) The avidity of the interaction between anti-BCMA antibodies and recombinant BCMA Fc(kih) (human and cynomolgus) was determined. Biotinylated recombinant human and cynomolgus BCMA Fc(kih) were directly coupled on a SA chip following instructions (Biacore, Freiburg/Germany). The immobilization level ranged from 200 to 700 RU. […] The dissociation was monitored for 180 seconds. Bulk refractive index differences were corrected for by subtracting the response obtained on the reference flow cell. Here, the anti-BCMA antibodies were flown over an empty surface previously activated and deactivated as described in the standard amine coupling kit. Apparent kinetic constants were derived using the Biacore T200 Evaluation Software (vAA, Biacore AB, Uppsala/Sweden), to fit rate equations for 1:1 Langmuir binding by numerical integration, despite the bivalency of the interaction for comparison purposes. The affinity of the interaction between anti-BCMA antibodies and recombinant human BCMA Fc(kih) was also determined. Anti-human Fab antibody (GE Healthcare) was directly coupled on a CMS chip at pH 5.0 using the standard amine coupling kit (Biacore, Freiburg/Germany). The immobilization level was about 6500 RU. […] The dissociation was monitored for 120 seconds. Bulk refractive index differences were corrected for by subtracting the response obtained on reference flow cell. […] Kinetic constants were derived using the Biacore T100 Evaluation Software (vAA, Biacore AB, Uppsala/Sweden), to fit rate equations for 1:1 Langmuir binding by numerical integration (Table 4).
Based on the affinity values described in Example 2, the affinity of anti-BCMA antibodies to human BCMA vs. cynomolgus BCMA were compared and cyno/hu affinity ratio (gap) values were calculated (Table 5).

[2] = target: T3, recombinant cynomolgus BCMA Fc(kih); test: SPR (Biacore T200), IgG captured via anti-human Fab, BCMA Fc(kih) as analyte, 1:1 Langmuir fit
Protocol: as §1, with “Assessment of binding of anti-BCMA antibodies to recombinant BCMA by surface plasmon resonance (SPR) as follow. […] The avidity” for “The avidity”

[3] = target: T2, recombinant human BCMA Fc(kih); test: as above
Protocol: as §1, with “Assessment of binding of anti-BCMA antibodies to recombinant BCMA by surface plasmon resonance (SPR) as follow. […] The avidity” for “The avidity”

[4] = target: T3, recombinant cynomolgus BCMA Fc(kih); test: SPR one-shot kinetics (ProteOn XPR36), IgG captured from HEK293 supernatant via anti-human F(ab)2, BCMA as analyte
Protocol: (§2) All experiments were performed at 25° C. using PBST as running buffer (10 mM PBS, pH 7.4 and 0.005% (v/v) Tween®20). A ProteOn XPR36 biosensor equipped with GLC and GLM sensor chips and coupling reagents (10 mM sodium acetate, pH 4.5, sulfo-N-hydroxysuccinimide, 1-ethyl-3-(3-dimethylaminopropyl)-carbodiimide hydrochloride [EDC] and ethanolamine) was purchased from BioRad Inc. (Hercules, Calif.). Immobilizations were performed at 30 μl/min. on a GLM chip. pAb (goat) anti hu IgG, F(ab)2 specific Ab (Jackson) was coupled in vertical direction using a standard amine-coupling procedure: all six ligand channels were activated for 5 min with a mixture of EDC (200 mM) and sulfo-NHS (50 mM). Immediately after the surfaces were activated, pAb (goat) anti hu IgG, F(ab)2 specific antibody (50 μg/ml, 10 mM sodium acetate, pH 5) was injected across all six channels for 5 min. Finally, channels were blocked with a 5 min injection of 1 M ethanolamine-HCl (pH 8.5). […] One-shot kinetic measurements were performed by injection of a dilution series of human, cyno and mouse BCMA (50, 10, 2, 0.4, 0.08, 0 nM, 50 μl/min) for 3 min along the vertical channels. Dissociation was monitored for 5 min Kinetic data were analyzed in ProteOn Manager v. 2.1. Processing of the reaction spot data involved applying an interspot-reference and a double-reference step using an inline buffer blank (Myszka, 1999). The processed data from replicate one-shot injections were fit to a simple 1:1 Langmuir binding model without mass transport (O'Shannessy et al., 1993).

[5] = target: T2, recombinant human BCMA Fc(kih); test: as above
Protocol: as §2

[6] = target: T4, murine BCMA extracellular domain, monomeric Fc-fusion (murine, UniProt O88472 1-49, site-specifically biotinylated at the C-terminal avi-tag); test: as above
T4 construct: extracellular domain; also called muBCMA; mouse BCMA; not shown: hinge and Fc of human IgG1, knob chain; avi-tag; unfused human IgG1 Fc portion (hole chain)
Protocol: as §2

T3 sequence (A0A2K5UD97 entry or part of it): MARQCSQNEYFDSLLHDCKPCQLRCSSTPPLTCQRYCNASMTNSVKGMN
T4 sequence (O88472 whole entry, the tested form may be a part): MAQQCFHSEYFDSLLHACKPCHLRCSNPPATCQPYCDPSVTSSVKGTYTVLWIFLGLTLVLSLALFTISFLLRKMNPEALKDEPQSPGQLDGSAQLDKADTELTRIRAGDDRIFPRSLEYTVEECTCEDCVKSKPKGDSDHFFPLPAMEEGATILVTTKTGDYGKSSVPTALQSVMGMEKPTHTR

| Binder | EC50 (human BCMA on cells) | Affinity cyno/hu gap [1] [fold] | Kd [2] [nM] | koff [2] [s⁻¹] | kon [2] [M⁻¹ s⁻¹] | Kd [3] [nM] | koff [3] [s⁻¹] | kon [3] [M⁻¹ s⁻¹] | Kd [4] [nM] | Kd [5] [nM] | Kd [6] [nM] |
| --- | --- | --- | --- | --- | --- | --- | --- | --- | --- | --- | --- |
| Mab 21 IgG (antibody, V domains shown, also called antibody 21) VH: EVQLLESGGGLVQPGGSLRLSCAASGFTFSDNAMGWVRQAPGKGLEWVSAISGPGSSTYYADSVKGRFTISRDNSKNTLYLQMNSLRAEDTAVYYCAKVLGWFDYWGQGTLVTVSS VL: EIVLTQSPGTLSLSPGERATLSCRASQSVSEYYLAWYQQKPGQAPRLLIEHASTRATGIPDRFSGSGSGTDFTLTISRLEPEDFAVYYCQQYGYPPDFTFGQGTKVEIK | 2.46 nM and 0.35 µg/mL | 9.3 | 0.478 | 0.000235 | 491000 | 0.0516 | 4.39e-05 | 851000 | 0.051 | 0.028 | 0.73 |
| Mab 14 (antibody, V domains shown, IgG variant (VH/VL combination)) VH: EVQLLESGGGLVQPGGSLRLSCAASGFTFYTNAMGWVRQAPGKGLEWVSAINRFGGSTYYADSVKGRFTISRDNSKNTLYLQMNSLRAEDTAVYYCAKVLGWFDYWGQGTLVTVSS VL: EIVLTQSPGTLSLSPGERATLSCRASQSVSDEYLSWYQQKPGQAPRLLIHSASTRATGIPDRFSGSGSGTDFTLAISRLEPEDFAVYYCQQYGYPPDFTFGQGTKVEIK | 1.47 nM and 0.21 µg/mL |  |  |  |  |  |  |  |  |  |  |
| Mab 28 (antibody, V domains shown, IgG variant) VH: EVQLLESGGGLVQPGGSLRLSCAASGFTFSSAPMGWVRQAPGKGLEWVSAISYIGHTYYADSVKGRFTISRDNSKNTLYLQMNSLRAEDTAVYYCAKVLGWFDYWGQGTLVTVSS VL: EIVLTQSPGTLSLSPGERATLSCRASQSVSSYYLAWYQQKPGQAPRLLISGAGSRATGIPDRFSGSGSGTDFTLTISRLEPEDFAVYYCQQYGYPPDFTFGQGTKVEIK | 11.3 nM and 1.63 µg/mL |  |  |  |  |  |  |  |  |  |  |
| Mab 39 IgG (antibody, V domains shown) VH: EVQLLESGGGLVQPGGSLRLSCAASGFTFTQNAMGWVRQAPGKGLEWVSAISPTGFSTYYADSVKGRFTISRDNSKNTLYLQMNSLRAEDTAVYYCAKVLGWFDYWGQGTLVTVSS VL: EIVLTQSPGTLSLSPGERATLSCRASQSVSEYYLAWYQQKPGQAPRLLIEHASTRATGIPDRFSGSGSGTDFTLTISRLEPEDFAVYYCQQYGYPPDFTFGQGTKVEIK | 1.73 nM and 0.25 µg/mL | 14 | 2.17 | 0.000467 | 215000 | 0.155 | 5.58e-05 | 361000 | 0.27 | 0.062 |  |
| Mab 34 (antibody, V domains shown, IgG variant) VH: EVQLLESGGGLVQPGGSLRLSCAASGFTFYTNAMGWVRQAPGKGLEWVSAINRFGGSTYYADSVKGRFTISRDNSKNTLYLQMNSLRAEDTAVYYCAKVLGWFDYWGQGTLVTVSS VL: EIVLTQSPGTLSLSPGERATLSCRASQSVSSYYLAWYQQKPGQAPRLLISGAGSRATGIPDRFSGSGSGTDFTLTISRLEPEDFAVYYCQQYGYPPDFTFGQGTKVEIK | 1.24 nM and 0.18 µg/mL |  |  |  |  |  |  |  |  |  |  |
| Mab 22 IgG (antibody, V domains shown, also called antibody 22; clone 22) VH: EVQLLESGGGLVQPGGSLRLSCAASGFTFSDNAMGWVRQAPGKGLEWVSAISGPGSSTYYADSVKGRFTISRDNSKNTLYLQMNSLRAEDTAVYYCAKVLGWFDYWGQGTLVTVSS VL: EIVLTQSPGTLSLSPGERATLSCRASQSVSSYYLAWYQQKPGQAPRLLISGAGSRATGIPDRFSGSGSGTDFTLTISRLEPEDFAVYYCQQYGYPPDFTFGQGTKVEIK | 2.08 nM and 0.3 µg/mL | 15.4 | 0.974 | 0.000442 | 454000 | 0.0633 | 5.15e-05 | 814000 |  | 0.048 | 0.9 |
| Mab 44 (antibody, V domains shown, IgG variant) VH: EVQLLESGGGLVQPGGSLRLSCAASGFTFSSAPMGWVRQAPGKGLEWVSAISYIGHTYYADSVKGRFTISRDNSKNTLYLQMNSLRAEDTAVYYCAKVLGWFDYWGQGTLVTVSS VL: EIVLTQSPGTLSLSPGERATLSCRASQSVSDEYLSWYQQKPGQAPRLLIHSASTRATGIPDRFSGSGSGTDFTLAISRLEPEDFAVYYCQQYGYPPDFTFGQGTKVEIK | 1.55 nM and 0.22 µg/mL |  |  |  |  |  |  |  |  |  |  |
| Mab 33 IgG (antibody, V domains shown) VH: EVQLLESGGGLVQPGGSLRLSCAASGFTFYTNAMGWVRQAPGKGLEWVSAINRFGGSTYYADSVKGRFTISRDNSKNTLYLQMNSLRAEDTAVYYCAKVLGWFDYWGQGTLVTVSS VL: EIVLTQSPGTLSLSPGERATLSCRASQSVSEYYLAWYQQKPGQAPRLLIEHASTRATGIPDRFSGSGSGTDFTLTISRLEPEDFAVYYCQQYGYPPDFTFGQGTKVEIK | 1.18 nM and 0.17 µg/mL | 4.2 | 0.739 | 9.76e-05 | 132000 | 0.178 | 3.55e-05 | 200000 | 0.034 | 0.017 | 0.49 |
